Non-standard residues stand in square brackets, D forms with d. No end group written: not given here. Ahx = NCCCCCC(=O)O
What was measured:
[1] = target: 4E6, recombinant IgG2c antibody; test: inhibition ELISA: antigen in solution varied, antibody 4E6 at 0.05 µg/ml, plate coated with G200-BSA peptide
[2] = target: 4E6, recombinant IgG2c antibody; test: inhibition ELISA 2nd protocol: antigen in solution varied, antibody 4E6, plate coated with G200-BSA peptide

4E6, recombinant IgG2c antibody, sequence (VH, as listed by the source limits assumed, chain 1 of 2): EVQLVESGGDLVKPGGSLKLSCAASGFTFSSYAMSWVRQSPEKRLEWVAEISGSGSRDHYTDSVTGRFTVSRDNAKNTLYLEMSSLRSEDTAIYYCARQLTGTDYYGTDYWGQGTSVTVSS
4E6, recombinant IgG2c antibody, sequence (VL, as listed by the source limits assumed, chain 2 of 2): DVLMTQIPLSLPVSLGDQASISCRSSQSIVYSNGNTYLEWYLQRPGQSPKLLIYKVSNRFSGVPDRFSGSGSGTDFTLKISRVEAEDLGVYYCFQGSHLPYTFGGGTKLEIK

IC50 [1]: 2.9 ng/mL
IC50 [2]: 11.5 ng/mL
B1: G200 N-terminal neo-epitope peptide GQPLQE-Acp-C (SEQ ID NO:50) conjugated to BSA (peptide)
peptide: GQPLQE[Ahx]C
modifications: not fully specified (residue 8); printed as GQPLQE-Acp-C; also: C-terminal Cys conjugated to BSA carrier
